Laboratory results: US20190381171A1, “CO-USE OF ANTI-BCMA ANTIBODY AND ANTIBODY-COUPLED T CELL RECEPTOR (ACTR) IN CANCER THERAPY AND B CELL DISORDERS” (UNUM THERAPEUTICS INC., priority 2017, published 2019)

Tests used:
Assay in all cases: cell-based or functional assay
[1] = target: ACTR variant SEQ ID NO: 62
[2] = target: ACTR variant SEQ ID NO: 57
[3] = target: ACTR variant SEQ ID NO: 60
[4] = target: ACTR variant SEQ ID NO: 63
[5] = target: ACTR variant SEQ ID NO: 61
[6] = target: ACTR variant SEQ ID NO: 59
[7] = target: ACTR variant SEQ ID NO: 10
[8] = target: ACTR variant SEQ ID NO: 7
[9] = target: ACTR variant SEQ ID NO: 58
ACTR variant SEQ ID NO: 58, sequence (chain, as listed by the source mutant): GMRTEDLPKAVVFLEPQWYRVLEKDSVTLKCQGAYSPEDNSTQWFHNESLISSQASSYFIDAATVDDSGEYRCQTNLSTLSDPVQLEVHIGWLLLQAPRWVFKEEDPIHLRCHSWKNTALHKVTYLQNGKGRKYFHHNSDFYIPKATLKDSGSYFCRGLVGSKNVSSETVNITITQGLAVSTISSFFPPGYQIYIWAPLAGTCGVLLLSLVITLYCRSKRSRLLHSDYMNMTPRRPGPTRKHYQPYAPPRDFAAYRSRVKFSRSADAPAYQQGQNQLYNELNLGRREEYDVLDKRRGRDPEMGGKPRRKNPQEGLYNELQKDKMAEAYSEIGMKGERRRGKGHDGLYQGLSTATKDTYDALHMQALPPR

ACTR variant SEQ ID NO: 61, sequence (chain, as listed by the source mutant limits assumed): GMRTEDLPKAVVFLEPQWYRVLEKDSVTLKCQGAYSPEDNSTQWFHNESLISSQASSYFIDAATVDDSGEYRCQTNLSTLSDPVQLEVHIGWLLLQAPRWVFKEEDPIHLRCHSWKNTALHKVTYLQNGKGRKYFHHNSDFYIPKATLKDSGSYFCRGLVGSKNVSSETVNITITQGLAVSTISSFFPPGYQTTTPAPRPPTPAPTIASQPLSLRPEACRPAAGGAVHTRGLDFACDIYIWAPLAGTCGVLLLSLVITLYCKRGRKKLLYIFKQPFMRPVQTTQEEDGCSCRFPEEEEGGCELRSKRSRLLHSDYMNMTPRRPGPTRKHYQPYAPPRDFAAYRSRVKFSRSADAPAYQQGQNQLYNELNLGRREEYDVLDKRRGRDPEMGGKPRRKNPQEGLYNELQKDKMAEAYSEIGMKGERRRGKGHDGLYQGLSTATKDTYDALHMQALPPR
ACTR variant SEQ ID NO: 59, sequence (chain, as listed by the source mutant limits assumed): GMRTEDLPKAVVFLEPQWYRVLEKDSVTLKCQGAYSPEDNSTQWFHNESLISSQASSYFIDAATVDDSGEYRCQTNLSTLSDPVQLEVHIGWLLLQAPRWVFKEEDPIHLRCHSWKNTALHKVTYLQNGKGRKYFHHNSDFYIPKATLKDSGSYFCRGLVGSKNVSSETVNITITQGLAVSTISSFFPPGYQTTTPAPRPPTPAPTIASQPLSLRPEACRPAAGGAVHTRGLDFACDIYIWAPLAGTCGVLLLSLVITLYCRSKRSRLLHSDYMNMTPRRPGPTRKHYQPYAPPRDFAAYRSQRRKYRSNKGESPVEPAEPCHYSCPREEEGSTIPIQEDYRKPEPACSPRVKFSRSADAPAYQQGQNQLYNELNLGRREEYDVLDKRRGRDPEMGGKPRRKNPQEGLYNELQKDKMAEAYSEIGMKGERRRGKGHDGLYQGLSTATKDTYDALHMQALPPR
ACTR variant SEQ ID NO: 7, sequence (chain, as listed by the source mutant limits assumed): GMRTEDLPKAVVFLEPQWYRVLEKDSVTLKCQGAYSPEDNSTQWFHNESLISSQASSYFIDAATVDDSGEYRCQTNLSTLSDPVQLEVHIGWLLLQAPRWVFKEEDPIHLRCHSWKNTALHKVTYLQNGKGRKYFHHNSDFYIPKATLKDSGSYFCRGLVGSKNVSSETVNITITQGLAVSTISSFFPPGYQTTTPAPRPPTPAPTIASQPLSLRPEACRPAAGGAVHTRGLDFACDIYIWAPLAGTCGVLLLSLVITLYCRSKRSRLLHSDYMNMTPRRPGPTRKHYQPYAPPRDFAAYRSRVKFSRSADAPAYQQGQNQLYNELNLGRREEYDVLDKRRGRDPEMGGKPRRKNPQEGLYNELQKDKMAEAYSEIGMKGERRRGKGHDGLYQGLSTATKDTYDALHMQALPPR
ACTR variant SEQ ID NO: 57, sequence (chain, as listed by the source mutant): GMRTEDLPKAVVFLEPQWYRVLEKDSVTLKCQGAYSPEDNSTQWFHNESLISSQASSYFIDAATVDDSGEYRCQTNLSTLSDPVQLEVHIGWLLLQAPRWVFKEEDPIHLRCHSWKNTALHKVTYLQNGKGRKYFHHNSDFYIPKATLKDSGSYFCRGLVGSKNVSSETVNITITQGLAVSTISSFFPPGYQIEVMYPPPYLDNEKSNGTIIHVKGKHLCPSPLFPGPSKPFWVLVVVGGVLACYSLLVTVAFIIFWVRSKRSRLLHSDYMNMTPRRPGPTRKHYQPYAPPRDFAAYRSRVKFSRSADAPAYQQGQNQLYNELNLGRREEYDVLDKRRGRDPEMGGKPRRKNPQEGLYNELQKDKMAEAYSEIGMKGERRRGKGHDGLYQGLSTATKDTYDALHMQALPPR
ACTR variant SEQ ID NO: 62, sequence (chain, as listed by the source mutant limits assumed): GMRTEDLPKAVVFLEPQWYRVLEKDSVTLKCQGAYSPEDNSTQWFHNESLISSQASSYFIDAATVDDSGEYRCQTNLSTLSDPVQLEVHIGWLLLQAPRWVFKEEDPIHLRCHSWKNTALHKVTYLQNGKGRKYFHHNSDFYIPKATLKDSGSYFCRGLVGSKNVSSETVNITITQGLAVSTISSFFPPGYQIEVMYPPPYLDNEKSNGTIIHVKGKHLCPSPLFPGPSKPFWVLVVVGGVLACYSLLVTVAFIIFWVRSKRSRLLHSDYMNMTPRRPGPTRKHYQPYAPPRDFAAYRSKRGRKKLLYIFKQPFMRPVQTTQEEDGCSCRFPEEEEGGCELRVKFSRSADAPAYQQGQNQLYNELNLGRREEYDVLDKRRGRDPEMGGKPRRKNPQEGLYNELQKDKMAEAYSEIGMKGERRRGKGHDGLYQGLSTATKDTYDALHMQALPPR
ACTR variant SEQ ID NO: 10, sequence (chain, as listed by the source mutant limits assumed): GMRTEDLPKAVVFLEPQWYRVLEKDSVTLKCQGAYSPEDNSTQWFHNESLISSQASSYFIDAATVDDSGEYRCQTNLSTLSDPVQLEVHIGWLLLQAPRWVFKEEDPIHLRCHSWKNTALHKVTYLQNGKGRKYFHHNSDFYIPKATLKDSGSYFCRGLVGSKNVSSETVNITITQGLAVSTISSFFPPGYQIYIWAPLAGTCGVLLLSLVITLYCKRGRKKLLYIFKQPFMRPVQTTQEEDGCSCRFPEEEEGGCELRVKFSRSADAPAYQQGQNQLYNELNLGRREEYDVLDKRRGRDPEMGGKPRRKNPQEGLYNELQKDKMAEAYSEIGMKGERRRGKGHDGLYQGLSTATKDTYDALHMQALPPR
ACTR variant SEQ ID NO: 60, sequence (chain, as listed by the source mutant limits assumed): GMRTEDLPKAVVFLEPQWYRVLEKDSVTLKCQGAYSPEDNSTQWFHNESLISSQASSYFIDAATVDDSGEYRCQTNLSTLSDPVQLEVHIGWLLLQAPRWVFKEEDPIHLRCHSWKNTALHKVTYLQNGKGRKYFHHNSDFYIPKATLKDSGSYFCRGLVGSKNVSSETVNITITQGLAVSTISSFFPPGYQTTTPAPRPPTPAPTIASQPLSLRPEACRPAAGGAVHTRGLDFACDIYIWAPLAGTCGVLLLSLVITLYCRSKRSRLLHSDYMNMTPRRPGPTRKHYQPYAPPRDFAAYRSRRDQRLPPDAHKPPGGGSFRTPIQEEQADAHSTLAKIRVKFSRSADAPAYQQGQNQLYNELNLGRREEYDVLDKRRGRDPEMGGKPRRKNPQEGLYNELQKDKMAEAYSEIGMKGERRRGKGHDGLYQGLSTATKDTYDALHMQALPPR
ACTR variant SEQ ID NO: 63, sequence (chain, as listed by the source mutant limits assumed): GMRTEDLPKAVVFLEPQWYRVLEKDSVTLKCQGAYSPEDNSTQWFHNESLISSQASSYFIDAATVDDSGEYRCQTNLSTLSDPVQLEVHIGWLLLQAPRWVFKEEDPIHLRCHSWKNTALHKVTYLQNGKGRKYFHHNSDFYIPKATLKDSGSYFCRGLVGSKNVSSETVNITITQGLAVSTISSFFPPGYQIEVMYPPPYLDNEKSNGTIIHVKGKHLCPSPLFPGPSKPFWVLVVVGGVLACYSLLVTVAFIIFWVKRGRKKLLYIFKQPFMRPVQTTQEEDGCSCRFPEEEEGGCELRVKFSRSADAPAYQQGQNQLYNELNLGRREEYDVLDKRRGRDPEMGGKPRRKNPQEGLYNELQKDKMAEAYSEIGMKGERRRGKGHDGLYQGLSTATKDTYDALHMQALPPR

B1: humanized afucosylated (SEA) anti-BCMA antibody hSG16.17SEA (antibody, V domains shown)
VH: QVQLVQSGAEVKKPGASVKLSCKASGYTFTDYYIHWVRQAPGQGLEWIGYINPNSGYTNYAQKFQGRATMTADKSINTAYVELSRLRSDDTAVYFCTRYMWERVTGFFDFWGQGTMVTVSS
VL: DIQMTQSPSSVSASVGDRVTITCLASEDISDDLAWYQQKPGKAPKVLVYTTSSLQSGVPSRFSGSGSGTDFTLTISSLQPEDFATYFCQQTYKFPPTFGGGTKVEIKR
IFNγ Release (pg/mL), ACTR T cells + NCI-H929 Target Cells + hSG16.17SEA (1 µg/mL) [1]: 14500 pg/mL | IFNγ Release (pg/mL), ACTR T cells + U266B1 Target Cells + hSG16.17SEA (1 µg/mL) [1]: 7580 pg/mL | IL-2 Release (pg/mL), ACTR T cells + NCI-H929 Target Cells + hSG16.17SEA (1 µg/mL) [1]: 119 pg/mL | IL-2 Release (pg/mL), ACTR T cells + U266B1 Target Cells + hSG16.17SEA (1 µg/mL) [1]: 12.3 pg/mL | T-cell proliferation: fold increase in CD3+ cells at 1 µg/mL hSG16.17SEA relative to no antibody, NCI-H929 Target Cells [1]: 6.24 fold | T-cell proliferation: fold increase in CD3+ cells at 1 µg/mL hSG16.17SEA relative to no antibody, U266B1 Target Cells [1]: 2.87 fold | IFNγ Release (pg/mL), ACTR T cells + NCI-H929 Target Cells + hSG16.17SEA (1 µg/mL) [2]: 16700 pg/mL | IFNγ Release (pg/mL), ACTR T cells + U266B1 Target Cells + hSG16.17SEA (1 µg/mL) [2]: 12600 pg/mL | IL-2 Release (pg/mL), ACTR T cells + NCI-H929 Target Cells + hSG16.17SEA (1 µg/mL) [2]: 373 pg/mL | IL-2 Release (pg/mL), ACTR T cells + U266B1 Target Cells + hSG16.17SEA (1 µg/mL) [2]: 187 pg/mL | T-cell proliferation: fold increase in CD3+ cells at 1 µg/mL hSG16.17SEA relative to no antibody, NCI-H929 Target Cells [2]: 35.5 fold | T-cell proliferation: fold increase in CD3+ cells at 1 µg/mL hSG16.17SEA relative to no antibody, U266B1 Target Cells [2]: 49.5 fold | IFNγ Release (pg/mL), ACTR T cells + NCI-H929 Target Cells + hSG16.17SEA (1 µg/mL) [3]: 18600 pg/mL | IFNγ Release (pg/mL), ACTR T cells + U266B1 Target Cells + hSG16.17SEA (1 µg/mL) [3]: 14400 pg/mL | IL-2 Release (pg/mL), ACTR T cells + NCI-H929 Target Cells + hSG16.17SEA (1 µg/mL) [3]: 258 pg/mL | IL-2 Release (pg/mL), ACTR T cells + U266B1 Target Cells + hSG16.17SEA (1 µg/mL) [3]: 48.6 pg/mL | T-cell proliferation: fold increase in CD3+ cells at 1 µg/mL hSG16.17SEA relative to no antibody, NCI-H929 Target Cells [3]: 18.3 fold | T-cell proliferation: fold increase in CD3+ cells at 1 µg/mL hSG16.17SEA relative to no antibody, U266B1 Target Cells [3]: 11.7 fold | IFNγ Release (pg/mL), ACTR T cells + NCI-H929 Target Cells + hSG16.17SEA (1 µg/mL) [4]: 16000 pg/mL | IFNγ Release (pg/mL), ACTR T cells + U266B1 Target Cells + hSG16.17SEA (1 µg/mL) [4]: 10400 pg/mL | IL-2 Release (pg/mL), ACTR T cells + NCI-H929 Target Cells + hSG16.17SEA (1 µg/mL) [4]: 66.5 pg/mL | IL-2 Release (pg/mL), ACTR T cells + U266B1 Target Cells + hSG16.17SEA (1 µg/mL) [4]: 1.6 pg/mL | T-cell proliferation: fold increase in CD3+ cells at 1 µg/mL hSG16.17SEA relative to no antibody, NCI-H929 Target Cells [4]: 3.76 fold | T-cell proliferation: fold increase in CD3+ cells at 1 µg/mL hSG16.17SEA relative to no antibody, U266B1 Target Cells [4]: 2.82 fold | IFNγ Release (pg/mL), ACTR T cells + NCI-H929 Target Cells + hSG16.17SEA (1 µg/mL) [5]: 22900 pg/mL | IFNγ Release (pg/mL), ACTR T cells + U266B1 Target Cells + hSG16.17SEA (1 µg/mL) [5]: 11600 pg/mL | IL-2 Release (pg/mL), ACTR T cells + NCI-H929 Target Cells + hSG16.17SEA (1 µg/mL) [5]: 178 pg/mL | IL-2 Release (pg/mL), ACTR T cells + U266B1 Target Cells + hSG16.17SEA (1 µg/mL) [5]: 132 pg/mL | T-cell proliferation: fold increase in CD3+ cells at 1 µg/mL hSG16.17SEA relative to no antibody, NCI-H929 Target Cells [5]: 15.8 fold | T-cell proliferation: fold increase in CD3+ cells at 1 µg/mL hSG16.17SEA relative to no antibody, U266B1 Target Cells [5]: 8.72 fold | IFNγ Release (pg/mL), ACTR T cells + NCI-H929 Target Cells + hSG16.17SEA (1 µg/mL) [6]: 17100 pg/mL | IFNγ Release (pg/mL), ACTR T cells + U266B1 Target Cells + hSG16.17SEA (1 µg/mL) [6]: 12600 pg/mL | IL-2 Release (pg/mL), ACTR T cells + NCI-H929 Target Cells + hSG16.17SEA (1 µg/mL) [6]: 46.6 pg/mL | IL-2 Release (pg/mL), ACTR T cells + U266B1 Target Cells + hSG16.17SEA (1 µg/mL) [6]: 214 pg/mL | T-cell proliferation: fold increase in CD3+ cells at 1 µg/mL hSG16.17SEA relative to no antibody, NCI-H929 Target Cells [6]: 11.5 fold | T-cell proliferation: fold increase in CD3+ cells at 1 µg/mL hSG16.17SEA relative to no antibody, U266B1 Target Cells [6]: 6.91 fold | IFNγ Release (pg/mL), ACTR T cells + NCI-H929 Target Cells + hSG16.17SEA (1 µg/mL) [7]: 19800 pg/mL | IFNγ Release (pg/mL), ACTR T cells + U266B1 Target Cells + hSG16.17SEA (1 µg/mL) [7]: 7970 pg/mL | IL-2 Release (pg/mL), ACTR T cells + NCI-H929 Target Cells + hSG16.17SEA (1 µg/mL) [7]: 224 pg/mL | IL-2 Release (pg/mL), ACTR T cells + U266B1 Target Cells + hSG16.17SEA (1 µg/mL) [7]: 260 pg/mL | T-cell proliferation: fold increase in CD3+ cells at 1 µg/mL hSG16.17SEA relative to no antibody, NCI-H929 Target Cells [7]: 7.46 fold | T-cell proliferation: fold increase in CD3+ cells at 1 µg/mL hSG16.17SEA relative to no antibody, U266B1 Target Cells [7]: 1.62 fold | IFNγ Release (pg/mL), ACTR T cells + NCI-H929 Target Cells + hSG16.17SEA (1 µg/mL) [8]: 6250 pg/mL | IFNγ Release (pg/mL), ACTR T cells + U266B1 Target Cells + hSG16.17SEA (1 µg/mL) [8]: 13700 pg/mL | IL-2 Release (pg/mL), ACTR T cells + NCI-H929 Target Cells + hSG16.17SEA (1 µg/mL) [8]: 262 pg/mL | IL-2 Release (pg/mL), ACTR T cells + U266B1 Target Cells + hSG16.17SEA (1 µg/mL) [8]: 34.8 pg/mL | T-cell proliferation: fold increase in CD3+ cells at 1 µg/mL hSG16.17SEA relative to no antibody, NCI-H929 Target Cells [8]: 80.1 fold | T-cell proliferation: fold increase in CD3+ cells at 1 µg/mL hSG16.17SEA relative to no antibody, U266B1 Target Cells [8]: 52 fold | IFNγ Release (pg/mL), ACTR T cells + NCI-H929 Target Cells + hSG16.17SEA (1 µg/mL) [9]: 16800 pg/mL | IFNγ Release (pg/mL), ACTR T cells + U266B1 Target Cells + hSG16.17SEA (1 µg/mL) [9]: 12700 pg/mL | IL-2 Release (pg/mL), ACTR T cells + NCI-H929 Target Cells + hSG16.17SEA (1 µg/mL) [9]: 420 pg/mL | IL-2 Release (pg/mL), ACTR T cells + U266B1 Target Cells + hSG16.17SEA (1 µg/mL) [9]: 17.8 pg/mL | T-cell proliferation: fold increase in CD3+ cells at 1 µg/mL hSG16.17SEA relative to no antibody, NCI-H929 Target Cells [9]: 9.76 fold | T-cell proliferation: fold increase in CD3+ cells at 1 µg/mL hSG16.17SEA relative to no antibody, U266B1 Target Cells [9]: 4.75 fold
